Where two headings read alike, the source gives them in different places.
B1: APOBEC3F (protein, UniProt Q8IUX4 1-373, looked up)
DNA dC->dU-editing enzyme …: MKPHFRNTVERMYRDTFSYNFYNRPILSRRNTVWLCYEVKTKGPSRPRLDAKIFRGQVYSQPEHHAEMCFLSWFCGNQLPAYKCFQITWFVSWTPCPDCVAKLAEFLAEHPNVTLTISAARLYYYWERDYRRALCRLSQAGARVKIMDDEEFAYCWENFVYSEGQPFMPWYKFDDNYAFLHRTLKEILRNPMEAMYPHIFYFHFKNLRKAYGRNESWLCFTMEVVKHHSPVSWKRGVFRNQVDPETHCHAERCFLSWFCDDILSPNTNYEVTWYTSWSPCPECAGEVAEFLARHSNVNLTIFTARLYYFWDTDYQEGLRSLSQEGASVEIMGYKDFKYCWENFVYNDDEPFKPWKGLKYNFLFLDSKLQEILE
B2: POP1: host protein, UniProt Q99575 (protein, UniProt Q99575 1-1024, looked up)
Ribonucleases P/MRP protein …: MSNAKERKHAKKMRNQPTNVTLSSGFVADRGVKHHSGGEKPFQAQKQEPHPGTSRQRQTRVNPHSLPDPEVNEQSSSKGMFRKKGGWKAGPEGTSQEIPKYITASTFAQARAAEISAMLKAVTQKSSNSLVFQTLPRHMRRRAMSHNVKRLPRRLQEIAQKEAEKAVHQKKEHSKNKCHKARRCHMNRTLEFNRRQKKNIWLETHIWHAKRFHMVKKWGYCLGERPTVKSHRACYRAMTNRCLLQDLSYYCCLELKGKEEEILKALSGMCNIDTGLTFAAVHCLSGKRQGSLVLYRVNKYPREMLGPVTFIWKSQRTPGDPSESRQLWIWLHPTLKQDILEEIKAACQCVEPIKSAVCIADPLPTPSQEKSQTELPDEKIGKKRKRKDDGENAKPIKKIIGDGTRDPCLPYSWISPTTGIIISDLTMEMNRFRLIGPLSHSILTEAIKAASVHTVGEDTEETPHRWWIETCKKPDSVSLHCRQEAIFELLGGITSPAEIPAGTILGLTVGDPRINLPQKKSKALPNPEKCQDNEKVRQLLLEGVPVECTHSFIWNQDICKSVTENKISDQDLNRMRSELLVPGSQLILGPHESKIPILLIQQPGKVTGEDRLGWGSGWDVLLPKGWGMAFWIPFIYRGVRVGGLKESAVHSQYKRSPNVPGDFPDCPAGMLFAEEQAKNLLEKYKRRPPAKRPNYVKLGTLAPFCCPWEQLTQDWESRVQAYEEPSVASSPNGKESDLRRSEVPCAPMPKKTHQPSDEVGTSIEHPREAEEVMDAGCQESAGPERITDQEASENHVAATGSHLCVLRSRKLLKQLSAWCGPSSEDSRGGRRAPGRGQQGLTREACLSILGHFPRALVWVSLSLLSKGSPEPHTMICVPAKEDFLQLHEDWHYCGPQESKHSDPFRSKILKQKEKKKREKRQKPGRASSDGPAGEEPVAGQEALTLGLWSGPLPRVTLHCSRTLLGFVTQGDFSMAVGCGEALGFVSLTGLLDMLSSQPAAQRGLVLLRPPASLQYRFARIAIEV
B3: RBM4 (protein, UniProt Q9BWF3 1-364, looked up)
RNA-binding protein 4: MVKLFIGNLPREATEQEIRSLFEQYGKVLECDIIKNYGFVHIEDKTAAEDAIRNLHHYKLHGVNINVEASKNKSKTSTKLHVGNISPTCTNKELRAKFEEYGPVIECDIVKDYAFVHMERAEDAVEAIRGLDNTEFQGKRMHVQLSTSRLRTAPGMGDQSGCYRCGKEGHWSKECPIDRSGRVADLTEQYNEQYGAVRTPYTMSYGDSLYYNNAYGALDAYYKRCRAARSYEAVAAAAASVYNYAEQTLSQLPQVQNTAMASHLTSTSLDPYDRHLLPTSGAAATAAAAAAAAAAVTAASTSYYGRDRSPLRRATAPVPTVGEGYGYGHESELSQASAAARNSLYDMARYEREQYADRARYSAF
B4: ESRP2 (protein, UniProt Q9H6T0 1-727, looked up)
Epithelial splicing …: MTPPPPPPPPPGPDPAADPAADPCPWPGSLVVLFGATAGALGRDLGSDETDLILLVWQVVEPRSRQVGTLHKSLVRAEAAALSTQCREASGLSADSLARAEPLDKVLQQFSQLVNGDVALLGGGPYMLCTDGQQLLRQVLHPEASRKNLVLPDMFFSFYDLRREFHMQHPSTCPARDLTVATMAQGLGLETDATEDDFGVWEVKTMVAVILHLLKEPSSQLFSKPEVIKQKYETGPCSDSTVPCPYSSKADVVDSETVVRARGLPWQSSDQDVARFFKGLNVARGGVALCLNAQGRRNGEALIRFVDSEQRDLALQRHKHHMGVRYIEVYKATGEEFVKIAGGTSLEVARFLSREDQVILRLRGLPFSAGPTDVLGFLGPECPVTGGTEGLLFVRHPDGRPTGDAFALFACEELAQAALRRHKGMLGKRYIELFRSTAAEVQQVLNRYASGPLLPTLTAPLLPIPFPLAPGTGRDCVRLRGLPYTATIEDILSFLGEAAADIRPHGVHMVLNQQGRPSGDAFIQMTSAERALAAAQRCHKKVMKERYVEVVPCSTEEMSRVLMGGTLGRSGMSPPPCKLPCLSPPTYTTFQATPTLIPTETAALYPSSALLPAARVPAAPTPVAYYPGPATQLYLNYTAYYPSPPVSPTTVGYLTTPTAALASAPTSVLSQSGALVRMQGVPYTAGMKDLLSVFQAYQLPADDYTSLMPVGDPPRTVLQAPKEWVCL
B5: RRBP1: host protein, UniProt Q9P2E9 (protein, UniProt Q9P2E9 1-1410, looked up)
Ribosome-binding protein 1: MDIYDTQTLGVVVFGGFMVVSAIGIFLVSTFSMKETSYEEALANQRKEMAKTHHQKVEKKKKEKTVEKKGKTKKKEEKPNGKIPDHDPAPNVTVLLREPVRAPAVAVAPTPVQPPIIVAPVATVPAMPQEKLASSPKDKKKKEKKVAKVEPAVSSVVNSIQVLTSKAAILETAPKEVPMVVVPPVGAKGNTPATGTTQGKKAEGTQNQSKKAEGAPNQGRKAEGTPNQGKKTEGTPNQGKKAEGTPNQGKKAEGTPNQGKKAEGAQNQGKKVDTTPNQGKKVEGAPTQGRKAEGAQNQAKKVEGAQNQGKKAEGAQNQGKKGEGAQNQGKKAEGAQNQGKKAEGAQNQGKKAEGAQNQGKKAEGAQNQGKKAEGAQNQGKKAEGAQNQGKKVEGAQNQGKKAEGAQNQGKKAEGAQNQGKKAEGAQNQGKKAEGAQNQGKKAEGAQNQGKKAEGAQNQGKKAEGAQNQGKKVEGAQNQGKKAEGAQNQGKKAEGAQNQGKKAEGAQNQGQKGEGAQNQGKKTEGAQGKKAERSPNQGKKGEGAPIQGKKADSVANQGTKVEGITNQGKKAEGSPSEGKKAEGSPNQGKKADAAANQGKKTESASVQGRNTDVAQSPEAPKQEAPAKKKSGSKKKGEPGPPDADGPLYLPYKTLVSTVGSMVFNEGEAQRLIEILSEKAGIIQDTWHKATQKGDPVAILKRQLEEKEKLLATEQEDAAVAKSKLRELNKEMAAEKAKAAAGEAKVKKQLVAREQEITAVQARMQASYREHVKEVQQLQGKIRTLQEQLENGPNTQLARLQQENSILRDALNQATSQVESKQNAELAKLRQELSKVSKELVEKSEAVRQDEQQRKALEAKAAAFEKQVLQLQASHRESEEALQKRLDEVSRELCHTQSSHASLRADAEKAQEQQQQMAELHSKLQSSEAEVRSKCEELSGLHGQLQEARAENSQLTERIRSIEALLEAGQARDAQDVQASQAEADQQQTRLKELESQVSGLEKEAIELREAVEQQKVKNNDLREKNWKAMEALATAEQACKEKLLSLTQAKEESEKQLCLIEAQTMEALLALLPELSVLAQQNYTEWLQDLKEKGPTLLKHPPAPAEPSSDLASKLREAEETQSTLQAECDQYRSILAETEGMLRDLQKSVEEEEQVWRAKVGAAEEELQKSRVTVKHLEEIVEKLKGELESSDQVREHTSHLEAELEKHMAAASAECQNYAKEVAGLRQLLLESQSQLDAAKSEAQKQSDELALVRQQLSEMKSHVEDGDIAGAPASSPEAPPAEQDPVQLKTQLEWTEAILEDEQTQRQKLTAEFEEAQTSACRLQEELEKLRTAGPLESSETEEASQLKERLEKEKKLTSDLGRAATRLQELLKTTQEQLAREKDTVKKLQEQLEKAEDGSSSKEGTSV
B6: SF3B2 (protein, UniProt Q13435 1-895, looked up)
Splicing factor 3B subunit 2: MATEHPEPPKAELQLPPPPPPGHYGAWAAQELQAKLAEIGAPIQGNREELVERLQSYTRQTGIVLNRPVLRGEDGDKAAPPPMSAQLPGIPMPPPPLGLPPLQPPPPPPPPPPGLGLGFPMAHPPNLGPPPPLRVGEPVALSEEERLKLAQQQAALLMQQEERAKQQGDHSLKEHELLEQQKRAAVLLEQERQQEIAKMGTPVPRPPQDMGQIGVRTPLGPRVAAPVGPVGPTPTVLPMGAPVPRPRGPPPPPGDENREMDDPSVGPKIPQALEKILQLKESRQEEMNSQQEEEEMETDARSSLGQSASETEEDTVSVSKKEKNRKRRNRKKKKKPQRVRGVSSESSGDREKDSTRSRGSDSPAADVEIEYVTEEPEIYEPNFIFFKRIFEAFKLTDDVKKEKEKEPEKLDKLENSAAPKKKGFEEEHKDSDDDSSDDEQEKKPEAPKLSKKKLRRMNRFTVAELKQLVARPDVVEMHDVTAQDPKLLVHLKATRNSVPVPRHWCFKRKYLQGKRGIEKPPFELPDFIKRTGIQEMREALQEKEEQKTMKSKMREKVRPKMGKIDIDYQKLHDAFFKWQTKPKLTIHGDLYYEGKEFETRLKEKKPGDLSDELRISLGMPVGPNAHKVPPPWLIAMQRYGPPPSYPNLKIPGLNSPIPESCSFGYHAGGWGKPPVDETGKPLYGDVFGTNAAEFQTKTEEEEIDRTPWGELEPSDEESSEEEEEEESDEDKPDETGFITPADSGLITPGGFSSVPAGMETPELIELRKKKIEEAMDGSETPQLFTVLPEKRTATVGGAMMGSTHIYDMSTVMSRKGPAPELQGVEVALAPEELELDPMAMTQKYEEHVREQQAQVEKEDFSDMVAEHAAKQKQKKRKAQPQDSRGGSKKYKEFKF

Experiments:
HCoV-OC43 gRNA and sgRNA = format: binding; settings: for target (unweighted spectral count, OC43 Probe II capture): tested against no-probe control, FDR<10%; for target (unweighted spectral count, OC43 Probe II) / background (unweighted spectral count, no-probe control): type n_48_v, 48 hpi; for target (unweighted spectral count, OC43 Probe II): OC43 Probe II capture on infected cells; for background (unweighted spectral count, no-probe control): no-probe control on infected cells; for target (spectral count) / background (spectral count): type s_36_m, Probe II; for target (spectral count): HCoV-OC43-infected HCT-8 cells; for background (spectral count): uninfected-probe control
gRNA of HCoV-OC43 = format: binding; settings: for target (spectral count, OC43 Probe I RNP capture) / background (spectral count, no-probe control): type n_48_v: 48 hours post-infection; for target (spectral count, OC43 Probe I RNP capture): infected cells, unweighted spectral count; for background (spectral count, no-probe control): no-probe control on infected cells

Row | Molecule | target (unweighted spectral count, OC43 Probe II capture) (HCoV-OC43 gRNA and sgRNA; 36 hpi, type n_36_v) | target (unweighted spectral count, OC43 Probe II) (HCoV-OC43 gRNA and sgRNA) | background (unweighted spectral count, no-probe control) (HCoV-OC43 gRNA and sgRNA) | target (spectral count, OC43 Probe I RNP capture) (gRNA of HCoV-OC43) | background (spectral count, no-probe control) (gRNA of HCoV-OC43) | target (spectral count) (HCoV-OC43 gRNA and sgRNA; 36 hpi) | background (spectral count) (HCoV-OC43 gRNA and sgRNA; 36 hpi) | target (unweighted spectral count, OC43 Probe II capture) (HCoV-OC43 gRNA and sgRNA; 24 hpi, type n_24_v) | target (spectral count) (gRNA of HCoV-OC43; type g_36_m, HCoV-OC43-infected HCT-8 cells, 36 hpi, Probe I) | background (spectral count) (gRNA of HCoV-OC43; type g_36_m, uninfected-probe control, 36 hpi, Probe I)
1 | B1 | 4 | 6 | 1 | 6 | 1 | – | – | – | – | –
2 | B2 | 8 | 7 | 1 | 6 | 1 | 8 | 1 | – | – | –
3 | B3 | 4 | – | – | 6 | 1 | – | – | 4 | – | –
4 | B4 | 6 | 8 | 1 | 6 | 1 | – | – | 5 | – | –
5 | B5 | 16 | 32 | 5 | 17 | 5 | 16 | 1 | 10 | 22 | 1
6 | B6 | – | 5 | 1 | 5 | 1 | – | – | – | – | –

From US20230407373A1 (priority 2020, published 2023)
